Patent US20200087363A1 (IMMATICS BIOTECHNOLOGIES, published 2020)

target: T1, HLA-B*44:05 (human); experiment: UV peptide exchange, anti-b2m ELISA
T1 construct: also called peptide-receptive MHC class I molecule
Outline: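 Peptide-receptive HLA-B*44:05 monomers after UV-induced exchange were diluted 100-fold and captured on streptavidin-coated plates for 1 h at 37 °C. Bound complexes were detected with 2 µg/ml HRP-anti-β2m (1 h, 37 °C) and TMB, read at 450 nm. β2m signal reflects peptide-stabilized complex yield.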

| Binder | peptide exchange yield [%] |
| --- | --- |
| QEVNISLHY | > 75 |
| SEHLFGTSY | 50 to 75 |
| AETEEGIYW | > 75 |
| GEDAHLTQY | 20 to 50 |
| IEYENQKRL | 20 to 50 |
| DEYLIPQQGFF | 20 to 50 |
| SEQHSLPVF | 50 to 75 |
| AEYQAAILHL | 50 to 75 |
| RRHPSFKRF | 10 to 20 |
| SENKKWVEF | 20 to 50 |
| SETAVVNVTY | > 75 |
| VEVIPEGAML | 50 to 75 |
| MEQQSQEY | 50 to 75 |
| DEIFTNDRRW | 20 to 50 |
| QELEQEVISL | 50 to 75 |
| SEVLLTSISTF | > 75 |
| GELAPSHGL | 50 to 75 |
| YEQLLKVVTW | > 75 |
| SEADWLRFW | > 75 |
| SEFDLEQVW | > 75 |
| QEDELVKIRKY | 50 to 75 |
| HELESENKKW | 50 to 75 |
| DEQLLLRF | 20 to 50 |
| AEVQIARKL | 50 to 75 |
| RELLDFSSW | > 75 |

| Binder | peptide exchange yield [%] |
| --- | --- |
| EEIENLQAQF | 20 to 50 |
| REKDLPNYNW | > 75 |
| MESAKETRY | 50 to 75 |
| SEGTLPYSY | 20 to 50 |
| AEPPILYSEY | 20 to 50 |
| SESSSFLKV | 50 to 75 |
| SETSTGTSV | 20 to 50 |
| QELSSIRQF | 50 to 75 |
| AEKNRRDAETW | > 75 |
| EEGRVYVY | 20 to 50 |
| RELVHMINW | > 75 |
| FELECPVKY | 50 to 75 |
| LEQASRIWSW | > 75 |
| EEPKIDFRVY | 50 to 75 |
| KEWEREKAVSL | 50 to 75 |
| AERIMFSDL | > 75 |
| AEMKFYVVI | 50 to 75 |
| RELGFTEATGW | > 75 |
| AEQEIMKKV | > 75 |
| KQTEATMTF | 20 to 50 |
| EMREERKF | 20 to 50 |
| AETIFIVRL | 20 to 50 |
| SETPTLQGL | 50 to 75 |
| TEFQQIINL | > 75 |
| NEVKEIKGY | 50 to 75 |

| Binder | peptide exchange yield [%] |
| --- | --- |
| LENPHVQSV | 50 to 75 |
| REESDWHYL | 50 to 75 |
| LEWQNSSSM | 50 to 75 |
| EEWEWIQKL | > 75 |
| AENPLNIFY | > 75 |
| EGEDAHLTQY | 20 to 50 |
| HELALRQTV | > 75 |
| QEDEQLLLRF | 50 to 75 |
| AENPLNIFYI | 50 to 75 |
| HENGVLTKF | 20 to 50 |
| DEIRVFGY | 20 to 50 |
| YEWEPFAEV | 10 to 20 |
| REYEYDLKW | > 75 |
| SDDLRNVTW | > 75 |
| RLWPEPENW | 20 to 50 |
| SEPQITVNF | 50 to 75 |
| LEWQHPSSW | > 75 |
| TEIMEKTTL | 50 to 75 |
| KEVASNSEL | 50 to 75 |
| EEMLENVSL | 50 to 75 |
| KELEATKQYL | 50 to 75 |
| AECILSKRL | 50 to 75 |
| EEINQGGRKY | 50 to 75 |
